{
  "source": "patent US6958223",
  "about": "(UNITED STATES SURGICAL, dated 2005)",
  "proteins": {"B1": {"name": "D4, 219 amino acid C-terminal fragment of human collagen Type I (α1), hydroxyproline-containing (other)", "chain": "MGPPGLAGPPGESGREGAPGAEGSPGRDGSPGAKGDRGETGPAGPPGAPGAPGAPGPVGPAGKSGDRGETGPAGPAGPVGPAGARGPAGPQGPRGDKGETGEQGDRGIKGHRGFSGLQGPPGPPGSPGEQGPSGASGPAGPRGPPGSAGAPGKDGLNGLPGPIGPPGPRGRTGDAGPVGPPGPPGPPGPPGPPSAGFDFSFLPQPPQEKAHDGGRYYRA", "modifications": "trans-4-hydroxyproline in place of proline at all proline positions (100% substitution by mass spectrometry and amino acid analysis)", "notes": "also called D4-α1; protein D4"}},
  "biological_target": "the molecule itself",
  "assay": "circular dichroism of purified D4 in 0.1M sodium phosphate pH 7.0 after two days at 4° C.; self-association into homotrimeric helices",
  "method": "The solution was incubated at 4° C. for two days to allow triple helices to form prior to analysis. Spectra were obtained on an Aviv model 62DS spectropolarimeter (Yale University, Molecular Biophysics and Biochemistry Department). A 1 mm path length quartz suprasil fluorimeter cell was used. Following a 10 min. incubation period at 4° C., standard wavelength spectra were recorded from 260 to 190 nm using 10 sec acquisition times and 0.5 nm scan steps. This spectrum is characterized by a negative ellipticity at 198 nm and a positive ellipticity at 221 nm. The magnitudes of both of these absorbances was greater in neutral pH buffer compared to acidic conditions. […] See, e.g., Venugopal et al., Biochemistry, 33, 7948 (1994). Heating at 85° C. for five minutes prior to obtaining the CD spectrum decreased the magnitude of the absorbance at 198 nm and abolished the absorbance at 221 nm (FIG. 33). This behavior is also typical of the triple helical structure of collagen. See, R. S. Bhatnagar et al., Circular Dichroism and the Conformational Analysis of Biomolecules G. D. Fasman, Ed., supra. A thermal melt profile of D4 conducted as above in phosphate buffer gave a melting temperature of about 29° C. […] (See, A. Rossi, et al., Biochemistry 35, 6048 (1996)).",
  "data": [
    {"protein": "B1", "values": [
      {"measurement": "binding result", "value": "binds"}
    ]}
  ]
}
